Source: patent US20240052047A1 (Pfizer, published 2024)

Target: human IL27 receptor (IL27RA/gp130 heterodimer) on human cells (human, UniProt Q6UWB1 33-636; P40189 23-918)
Experiment: cell-based or functional assay

Sequence of human IL27 receptor (IL27RA/gp130 heterodimer) on human cells (Q6UWB1 33-636 limits assumed, chain 1 of 2): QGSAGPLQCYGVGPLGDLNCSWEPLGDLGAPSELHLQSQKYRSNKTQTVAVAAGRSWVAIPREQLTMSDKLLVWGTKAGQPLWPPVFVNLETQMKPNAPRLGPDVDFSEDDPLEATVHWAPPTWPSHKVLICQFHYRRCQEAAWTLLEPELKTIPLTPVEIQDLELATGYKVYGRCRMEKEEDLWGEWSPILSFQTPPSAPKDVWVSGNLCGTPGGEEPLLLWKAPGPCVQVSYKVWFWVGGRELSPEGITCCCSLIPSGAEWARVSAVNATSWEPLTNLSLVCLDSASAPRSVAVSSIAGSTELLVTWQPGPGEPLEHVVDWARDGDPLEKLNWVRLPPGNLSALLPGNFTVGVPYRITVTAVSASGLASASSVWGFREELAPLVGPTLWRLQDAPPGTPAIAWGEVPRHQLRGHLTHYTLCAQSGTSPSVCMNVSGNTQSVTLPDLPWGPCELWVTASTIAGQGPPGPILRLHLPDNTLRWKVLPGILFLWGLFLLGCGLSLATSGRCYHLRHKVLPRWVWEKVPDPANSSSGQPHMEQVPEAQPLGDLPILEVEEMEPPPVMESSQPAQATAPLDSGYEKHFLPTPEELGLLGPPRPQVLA
Sequence of human IL27 receptor (IL27RA/gp130 heterodimer) on human cells (P40189 23-918 limits assumed, chain 2 of 2): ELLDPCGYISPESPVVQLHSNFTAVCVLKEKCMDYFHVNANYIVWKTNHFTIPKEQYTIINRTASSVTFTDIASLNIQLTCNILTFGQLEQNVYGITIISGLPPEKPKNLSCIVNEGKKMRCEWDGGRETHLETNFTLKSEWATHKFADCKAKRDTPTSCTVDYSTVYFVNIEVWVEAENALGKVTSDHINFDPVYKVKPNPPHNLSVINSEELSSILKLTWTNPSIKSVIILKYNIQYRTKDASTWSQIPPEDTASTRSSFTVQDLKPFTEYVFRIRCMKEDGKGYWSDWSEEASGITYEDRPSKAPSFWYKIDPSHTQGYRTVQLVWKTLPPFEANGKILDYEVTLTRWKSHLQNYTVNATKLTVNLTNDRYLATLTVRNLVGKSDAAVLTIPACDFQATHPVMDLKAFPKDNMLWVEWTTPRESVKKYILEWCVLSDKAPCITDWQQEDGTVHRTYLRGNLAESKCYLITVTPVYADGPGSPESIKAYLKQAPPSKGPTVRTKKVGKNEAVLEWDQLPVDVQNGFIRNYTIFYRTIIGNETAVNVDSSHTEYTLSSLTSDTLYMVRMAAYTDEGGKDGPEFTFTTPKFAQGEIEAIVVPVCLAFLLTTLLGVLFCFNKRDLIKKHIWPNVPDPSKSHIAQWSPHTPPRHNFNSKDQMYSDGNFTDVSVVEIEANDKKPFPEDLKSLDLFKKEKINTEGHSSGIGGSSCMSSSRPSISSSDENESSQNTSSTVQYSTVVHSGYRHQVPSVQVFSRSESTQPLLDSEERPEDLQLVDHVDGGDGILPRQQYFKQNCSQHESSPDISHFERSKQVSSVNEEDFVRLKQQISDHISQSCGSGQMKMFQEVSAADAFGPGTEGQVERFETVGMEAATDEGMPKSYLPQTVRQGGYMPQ

B1: GBT-IL-27R-4933 (KiH-mFd format IL27RA/gp130 bispecific antibody) (bispecific antibody, human IgG1, kappa)
chain 1: DIQMTQSPSSLSASVGDRVTITCRASQSVSSSYLAWYQQKPGKAPKLLIYGTESRATGVPSRFSGSGSGTDFTLTISSLQPEDFATYYCQQYGGYPTFGGGTKVEIKRTVAAPSVFIFPPSDEQLKSGTASVVCLLNNFYPREAKVQWKVDNALQSGNSQESVTEQDSKDSTYSLSSTLTLSKADYEKHKVYACEVTHQGLSSPVTKSFNRGECDKTHTCPPCPAPEAAGAPSVFLFPPKPKDTLMISRTPEVTCVVVDVSHEDPEVKFNWYVDGVEVHNAKTKPREEQYNSTYRVVSVLTVLHQDWLNGKEYKCKVSNKALPAPIEKTISKAKGQPREPQVYTLPPCREEMTKNQVSLSCAVKGFYPSDIAVEWESNGQPENNYKTTPPVLDSDGSFFLVSKLTVDKSRWQQGNVFSCSVMHEALHNHYTQKSLSLSPGK
chain 2: QVQLVQSGAEVKKPGSSVKVSCKVSGGSISSYYWSWVRQAPGQGLEWIGRIYITGNTNYNPSLKDRVTMTVDTSTSTHYMELSSLRSEDTAVYYCAREGPKLGIFDYWGQGTLVTVSSASTKGPSVFPLAPSSKSTSGGTAALGCLVKDYFPEPVTVSWNSGALTSGVHTFPAVLQSSGLYSLSSVVTVPSSSLGTQTYICNVNHKPSNTKVDKKVEPKSC
heavy: EVQLVESGGGLVQPGGSLRLSCAASGFTFEYFGLQWVRQAPGKGLEWIGYTSSGGNYEYYEETLKGRFTISRDNAKNSLYLQMNSLRAEDTAVYYCARTKTGDYWGQGTLVTVSSASTKGPSVFPLAPSSKSTSGGTAALGCLVKDYFPEPVTVSWNSGALTSGVHTFPAVLQSSGLYSLSSVVTVPSSSLGTQTYICNVNHKPSNTKVDKKVEPKSCDKTHTCPPCPAPEAAGAPSVFLFPPKPKDTLMISRTPEVTCVVVDVSHEDPEVKFNWYVDGVEVHNAKTKPREEQYNSTYRVVSVLTVLHQDWLNGKEYKCKVSNKALPAPIEKTISKAKGQPREPQVCTLPPSREEMTKNQVSLWCLVKGFYPSDIAVEWESNGQPENNYKTTPPVLDSDGSFFLYSKLTVDKSRWQQGNVFSCSVMHEALHNHYTQKSLSLSPGK
light: DIQMTQSPSSLSASVGDRVTITCRASQDIGNSLTWYQQKPGKAPKRVIFGATGLAAGVPSRFSGSGSGTDFTLTISSLQPEDFATYYCLQSKQYPYTFGQGTKLEIKRTVAAPSVFIFPPSDEQLKSGTASVVCLLNNFYPREAKVQWKVDNALQSGNSQESVTEQDSKDSTYSLSSTLTLSKADYEKHKVYACEVTHQGLSSPVTKSFNRGEC
- IDO1 in CD14+ monocytes EC50: 0.015 nM
- PD-L1 in CD14+ monocytes EC50 (human whole blood): 0.006 nM
- pSTAT1 in CD3+ T cells EC50 (human whole blood): 0.233 nM
